Bridge positions count the residues as written; N and C are the ends. Square brackets hold non-standard residues; d marks the D form. Ends that are not written are not given here.
B1: Ac-Phe-Arg-c(Cys-D-Ala-His-D-Phe-Arg-Trp-Cys)-NH2 (peptide)
peptide: Ac-FRC[dA]H[dF]RWC-NH2
modifications: disulfide 3-9
SMILES: CC(=O)N[C@@H](Cc1ccccc1)C(=O)N[C@@H](CCCNC(=N)N)C(=O)N[C@H]1CSSC[C@@H](C(N)=O)NC(=O)[C@H](Cc2c[nH]c3ccccc23)NC(=O)[C@H](CCCNC(=N)N)NC(=O)[C@@H](Cc2ccccc2)NC(=O)[C@H](Cc2c[nH]cn2)NC(=O)[C@@H](C)NC1=O
B2: Ac-Trp-Arg-c(Cys-D-Ala-His-D-Phe-Arg-Trp-Cys)-NH2 (peptide)
peptide: Ac-WRC[dA]H[dF]RWC-NH2
modifications: disulfide 3-9
SMILES: CC(=O)N[C@@H](Cc1c[nH]c2ccccc12)C(=O)N[C@@H](CCCNC(=N)N)C(=O)N[C@H]1CSSC[C@@H](C(N)=O)NC(=O)[C@H](Cc2c[nH]c3ccccc23)NC(=O)[C@H](CCCNC(=N)N)NC(=O)[C@@H](Cc2ccccc2)NC(=O)[C@H](Cc2c[nH]cn2)NC(=O)[C@@H](C)NC1=O

target: human melanocortin receptor subtype 1 (hMC1-R) (human), Q01726; test: [125I]-NDP-α-MSH competition, membranes
Sequence (Q01726 whole entry): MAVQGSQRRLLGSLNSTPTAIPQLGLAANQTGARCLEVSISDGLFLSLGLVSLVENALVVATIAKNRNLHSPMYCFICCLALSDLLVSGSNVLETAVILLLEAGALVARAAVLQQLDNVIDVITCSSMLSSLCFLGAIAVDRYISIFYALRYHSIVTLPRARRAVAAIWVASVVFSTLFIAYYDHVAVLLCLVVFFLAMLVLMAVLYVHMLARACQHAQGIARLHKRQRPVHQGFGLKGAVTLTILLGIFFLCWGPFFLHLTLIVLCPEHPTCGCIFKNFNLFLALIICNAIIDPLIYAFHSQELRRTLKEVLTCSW

Row | Ki [nM] | Binder
1 | 1.48 | B1
2 | 4.7 | B2
3 | 2.65 | RGC[dA]H[dF]RWC-NH2 (disulfide 3-9; also: hydantoin ring: C(O) bridging Arg-Gly) [Hydantoin(C(O)-(Arg-Gly))-c(Cys-D-Ala-His-D-Phe-Arg-Trp-Cys)-NH2]
4 | 1.14 | GRC[dA]H[dF]RWC-NH2 (disulfide 3-9; also: hydantoin ring from C(O) with Gly1-Arg2) [Hydantoin(C(O)-(Gly-Arg))-c(Cys-D-Ala-His-D-Phe-Arg-Trp-Cys)-NH2]
5 | 15.3 | VGC[dA]H[dF]RWC-NH2 (disulfide 3-9; also: hydantoin ring from C(O) with Val1-Gly2) [Hydantoin(C(O)-(Val-Gly))-c(Cys-D-Ala-His-D-Phe-Arg-Trp-Cys)-NH2]
6 | 11.6 | IGC[dA]H[dF]RWC-NH2 (disulfide 3-9; also: hydantoin ring from C(O) with Ile1-Gly2) [Hydantoin(C(O)-(Ile-Gly))-c(Cys-D-Ala-His-D-Phe-Arg-Trp-Cys)-NH2]
7 | 19.3 | LGC[dA]H[dF]RWC-NH2 (disulfide 3-9; also: hydantoin ring from C(O) with Leu1-Gly2) [Hydantoin(C(O)-(Leu-Gly))-c(Cys-D-Ala-His-D-Phe-Arg-Trp-Cys)-NH2]

target: human melanocortin receptor subtype 3 (hMC3-R) (human), P41968; test: [125I]-NDP-α-MSH competition, membranes
Sequence (P41968 whole entry): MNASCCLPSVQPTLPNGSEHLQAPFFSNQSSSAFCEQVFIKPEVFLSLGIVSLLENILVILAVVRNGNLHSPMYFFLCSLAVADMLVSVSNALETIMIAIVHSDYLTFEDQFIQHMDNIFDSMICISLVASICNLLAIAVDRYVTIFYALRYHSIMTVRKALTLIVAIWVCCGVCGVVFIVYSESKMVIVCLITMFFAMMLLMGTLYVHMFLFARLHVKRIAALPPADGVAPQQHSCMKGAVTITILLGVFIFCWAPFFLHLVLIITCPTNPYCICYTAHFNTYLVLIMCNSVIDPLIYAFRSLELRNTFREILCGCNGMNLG

Row | Ki [nM] | Binder
8 | 14.8 | B1
9 | 42 | B2
10 | 41.3 | RGC[dA]H[dF]RWC-NH2 (disulfide 3-9; also: hydantoin ring: C(O) bridging Arg-Gly) [Hydantoin(C(O)-(Arg-Gly))-c(Cys-D-Ala-His-D-Phe-Arg-Trp-Cys)-NH2]
11 | 1.7 | GRC[dA]H[dF]RWC-NH2 (disulfide 3-9; also: hydantoin ring from C(O) with Gly1-Arg2) [Hydantoin(C(O)-(Gly-Arg))-c(Cys-D-Ala-His-D-Phe-Arg-Trp-Cys)-NH2]
12 | 160 | VGC[dA]H[dF]RWC-NH2 (disulfide 3-9; also: hydantoin ring from C(O) with Val1-Gly2) [Hydantoin(C(O)-(Val-Gly))-c(Cys-D-Ala-His-D-Phe-Arg-Trp-Cys)-NH2]
13 | 194 | IGC[dA]H[dF]RWC-NH2 (disulfide 3-9; also: hydantoin ring from C(O) with Ile1-Gly2) [Hydantoin(C(O)-(Ile-Gly))-c(Cys-D-Ala-His-D-Phe-Arg-Trp-Cys)-NH2]
14 | 331 | LGC[dA]H[dF]RWC-NH2 (disulfide 3-9; also: hydantoin ring from C(O) with Leu1-Gly2) [Hydantoin(C(O)-(Leu-Gly))-c(Cys-D-Ala-His-D-Phe-Arg-Trp-Cys)-NH2]

target: human melanocortin receptor subtype 4 (hMC4-R) (human), P32245; test: [125I]-NDP-α-MSH competition, membranes
Sequence (P32245 whole entry): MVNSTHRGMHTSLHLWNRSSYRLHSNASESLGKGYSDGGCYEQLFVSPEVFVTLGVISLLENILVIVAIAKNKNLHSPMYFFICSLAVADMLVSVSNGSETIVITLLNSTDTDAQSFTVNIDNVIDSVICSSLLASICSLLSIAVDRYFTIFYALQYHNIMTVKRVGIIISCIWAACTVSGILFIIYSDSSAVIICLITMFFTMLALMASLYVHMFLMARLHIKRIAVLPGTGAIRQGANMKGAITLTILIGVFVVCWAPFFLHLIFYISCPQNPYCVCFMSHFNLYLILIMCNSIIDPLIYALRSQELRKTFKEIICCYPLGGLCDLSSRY

Row | Ki [nM] | Binder
15 | 2.34 | B1
16 | 2.25 | B2
17 | 4.17 | RGC[dA]H[dF]RWC-NH2 (disulfide 3-9; also: hydantoin ring: C(O) bridging Arg-Gly) [Hydantoin(C(O)-(Arg-Gly))-c(Cys-D-Ala-His-D-Phe-Arg-Trp-Cys)-NH2]
18 | 4.53 | GRC[dA]H[dF]RWC-NH2 (disulfide 3-9; also: hydantoin ring from C(O) with Gly1-Arg2) [Hydantoin(C(O)-(Gly-Arg))-c(Cys-D-Ala-His-D-Phe-Arg-Trp-Cys)-NH2]
19 | 8.66 | VGC[dA]H[dF]RWC-NH2 (disulfide 3-9; also: hydantoin ring from C(O) with Val1-Gly2) [Hydantoin(C(O)-(Val-Gly))-c(Cys-D-Ala-His-D-Phe-Arg-Trp-Cys)-NH2]
20 | 11.5 | IGC[dA]H[dF]RWC-NH2 (disulfide 3-9; also: hydantoin ring from C(O) with Ile1-Gly2) [Hydantoin(C(O)-(Ile-Gly))-c(Cys-D-Ala-His-D-Phe-Arg-Trp-Cys)-NH2]
21 | 26.7 | LGC[dA]H[dF]RWC-NH2 (disulfide 3-9; also: hydantoin ring from C(O) with Leu1-Gly2) [Hydantoin(C(O)-(Leu-Gly))-c(Cys-D-Ala-His-D-Phe-Arg-Trp-Cys)-NH2]

target: human melanocortin receptor subtype 5 (hMC5-R) (human), P33032; test: [125I]-NDP-α-MSH competition, membranes
Sequence (P33032 whole entry): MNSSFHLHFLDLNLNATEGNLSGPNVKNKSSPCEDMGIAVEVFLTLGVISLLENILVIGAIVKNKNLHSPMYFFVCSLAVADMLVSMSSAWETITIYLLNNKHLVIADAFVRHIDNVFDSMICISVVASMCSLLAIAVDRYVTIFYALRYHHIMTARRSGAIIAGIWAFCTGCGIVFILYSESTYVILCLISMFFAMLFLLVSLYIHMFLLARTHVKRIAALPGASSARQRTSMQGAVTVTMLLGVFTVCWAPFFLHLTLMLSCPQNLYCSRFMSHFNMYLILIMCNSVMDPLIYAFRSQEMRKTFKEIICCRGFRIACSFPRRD

Row | Ki [nM] | Binder
22 | 491 | B1
23 | 1470 | B2
24 | 650 | RGC[dA]H[dF]RWC-NH2 (disulfide 3-9; also: hydantoin ring: C(O) bridging Arg-Gly) [Hydantoin(C(O)-(Arg-Gly))-c(Cys-D-Ala-His-D-Phe-Arg-Trp-Cys)-NH2]
25 | 783 | GRC[dA]H[dF]RWC-NH2 (disulfide 3-9; also: hydantoin ring from C(O) with Gly1-Arg2) [Hydantoin(C(O)-(Gly-Arg))-c(Cys-D-Ala-His-D-Phe-Arg-Trp-Cys)-NH2]
26 | 33.4 | VGC[dA]H[dF]RWC-NH2 (disulfide 3-9; also: hydantoin ring from C(O) with Val1-Gly2) [Hydantoin(C(O)-(Val-Gly))-c(Cys-D-Ala-His-D-Phe-Arg-Trp-Cys)-NH2]
27 | 28.9 | IGC[dA]H[dF]RWC-NH2 (disulfide 3-9; also: hydantoin ring from C(O) with Ile1-Gly2) [Hydantoin(C(O)-(Ile-Gly))-c(Cys-D-Ala-His-D-Phe-Arg-Trp-Cys)-NH2]
28 | 44.6 | LGC[dA]H[dF]RWC-NH2 (disulfide 3-9; also: hydantoin ring from C(O) with Leu1-Gly2) [Hydantoin(C(O)-(Leu-Gly))-c(Cys-D-Ala-His-D-Phe-Arg-Trp-Cys)-NH2]

target: hMC5-R (human), P33032; test: competition with [125I]-NDP-α-MSH, CHO-K1 membranes
Sequence (P33032 whole entry): as above

Row | Ki [nM] | Binder
29 | 430 | Ac-RC[dA]H[dF]RWC-NH2 (disulfide 2-8) [Ac-Arg-c(Cys-D-Ala-His-D-Phe-Arg-Trp-Cys)-NH2]

From US20120135923A1, “Use of Melanocortins to Treat Dyslipidemia” (IPSEN PHARMA, S.A.S., priority 2009, published 2012)
